Laboratory results taken from the supplement of paper PMC9170038.

How the values were obtained:
[1] = test system: MS2 coat protein; assay: apparent KD of MS2 coat protein, switch ON state; designed switch direction (-1 OFF switch, 1 ON switch): 1; higher = weaker reporter binding; conditions: FMN input: 0 or 200 uM; Eterna round: R93 (includes R88 designs)
Method in brief: (§1)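 Designed RNA switches were made by on-chip transcription from Illumina sequencing clusters and then titrated with SNAP-549-labelled MS2 coat protein. Twofold steps ran from 0.7 or 1.5 nM to 3 µM, each lasting 0.8–1.5 h early and 10–20 min late, in 100 mM Tris-HCl pH 7.5, 80 mM KCl, 4 mM MgCl2, without or with constant ligand. Apparent KD is the per-design median of normalised cluster binding-curve fits.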

[2] = test system: MS2 coat protein; assay: apparent KD of MS2 coat protein, switch OFF state (with FMN for OFF switches, without FMN for ON switches); designed switch direction (-1 OFF switch, 1 ON switch): 1; higher = weaker reporter binding; conditions: FMN input: 0 or 200 uM; Eterna round: R93 (includes R88 designs)
Method in brief: as §1

## GAGGACAUAGUAUAGGAUAUAUGAAUAAUUACAUGAGGAUCACCCAUGUGCAUUUAUAUGCGAACAUAGAAGGGUGGUAGUUAUC [SameState2 Malc#32]
[1]
  apparent KD of MS2 coat protein: 0.0416 µM
[2]
  apparent KD of MS2 coat protein: 0.037 µM

## GAGGACAUAGUUCAGGAUAUAUGAAUAGUCACAUGAGGAUCACCCAUGUCCAUUUAUAUGGGCACAUAGAAGGGAGGUAGUUAUC [SameState2 Malc#26]
[1]
  apparent KD of MS2 coat protein: 0.205 µM
[2]
  apparent KD of MS2 coat protein: 0.417 µM

## GCAGGGCUACACUAGGAUAUGGGUGUCUAAACAUGAGGAUCACCCAUGUGAUGGCAAAACAAAGCUCAGAAGGAGUCGUAGCCCA [Bebirare]
[1]
  apparent KD of MS2 coat protein: 0.014 µM
[2]
  apparent KD of MS2 coat protein: 0.0243 µM

## GGAGCCGGCACUGAGGAUAUUCAUAUUAAAACAUGAGGAUCACCCAUGUAGGCCAGAAGGCCUUGGGAGAAGGCAGGUCGGCCCG [Bibimaor]
[1]
  apparent KD of MS2 coat protein: 0.0185 µM
[2]
  apparent KD of MS2 coat protein: 0.252 µM

## GGAUAACAUGAGGAUCACCCAUGUACAUGGGUACAAGGAUAUGUAAAAUAAAACAAACAAACAGAAGGUGUAAAAA [I'm in a state]
[1]
  apparent KD of MS2 coat protein: 0.228 µM
[2]
  apparent KD of MS2 coat protein: 0.163 µM

## GGGAGACAUGAGGAUCACCCAUGUGAAAACGUGUGAGGAUAUCUAUGGAAACCAUACUGUAGAGAAGGCACUUGUC [Servius Sulpicius Similis]
[1]
  apparent KD of MS2 coat protein: 0.0454 µM
[2]
  apparent KD of MS2 coat protein: 0.125 µM

## GGGAGACAUGAGGAUCACCCAUGUGAGAAGAGGCGAGGAUAUCGAAAAAAAAAAAAAAAACGAGAAGGCGCGAGAU [salish99-SS1-004]
[1]
  apparent KD of MS2 coat protein: 0.0744 µM
[2]
  apparent KD of MS2 coat protein: 0.3 µM

## GGGAGGAAGAGAGAGGAUAUCCAAAGGAAAACAUGAGGAUCACCCAUGUAAAAGGUAGGAAAUUGGGAGAAGGCUCAAAAGAGGG [salish99-ss2-038]
[1]
  apparent KD of MS2 coat protein: 0.0298 µM
[2]
  apparent KD of MS2 coat protein: 0.0406 µM

## GGUCGACAUGAGGAUCACCCAUGUAAGCCAAGGCAAGGAUAUGGGUAUAGGGUGCUAGGAUUAGAAGGUGCCAAAA [Soredige]
[1]
  apparent KD of MS2 coat protein: 0.0871 µM
[2]
  apparent KD of MS2 coat protein: 0.0828 µM

## GUAGACAUAGUUCAGGAUAUAUGAAUAGUCACAUGAGGAUCACCCAUGUGCAUUUAUAUGCGCACAUAGAAGGGAGGUAGUUAAC [Mat - Same state - Malcolm Mod - D122]
[1]
  apparent KD of MS2 coat protein: 0.0223 µM
[2]
  apparent KD of MS2 coat protein: 0.0207 µM

## GUCAGGAAGAGAGAGGAUAUCCAAAGGAAAACAUGAGGAUCACCCAUGUAAAAGGUAGGAAAUUGGGAGAAGGCUCAAGAGAGAG [salish99-ss2-095]
[1]
  apparent KD of MS2 coat protein: 0.0315 µM
[2]
  apparent KD of MS2 coat protein: 0.0488 µM

## GUUAGGAAGAGAGAGGAUAUCCAAAGGAAAACAUGAGGAUCACCCAUGUAAAAGGUAGGAAAUUGGGAGAAGGCUCAAGAGAGAG [salish99-ss2-079]
[1]
  apparent KD of MS2 coat protein: 0.0319 µM
[2]
  apparent KD of MS2 coat protein: 0.0375 µM

## GUUGAACAUGAGGAUCACCCAUGUCUCAACAGUCAAGGAUAUGGGUCAUGCAGAUGAAUACCAGAAGGUGAAUAAA [Zaorxe]
[1]
  apparent KD of MS2 coat protein: 0.0158 µM
[2]
  apparent KD of MS2 coat protein: 0.0336 µM

## UAAAAACAUGAGGAUCACCCAUGUAGAAAUAUGGGAGGAUAUACGAAGACGAAAGUCAAAGUAGAAGGCCUAAAAU [Mat - Same State 1 - Eli mod - D104]
[1]
  apparent KD of MS2 coat protein: 0.0218 µM
[2]
  apparent KD of MS2 coat protein: 0.058 µM

## UAAUAAUAAACCAAGGAUAUGGAGUUUCCAACAUGAGGAUCACCCAUGUUUAGCAUGAAAUCGAACCAGAAGGUGGAGCCAAAUA [JR_SS002_Sub1004]
[1]
  apparent KD of MS2 coat protein: 0.0108 µM
[2]
  apparent KD of MS2 coat protein: 0.0425 µM

## UACAGACAUGAGGAUCACCCAUGUAGAAUUAUGGGAGGAUAUACAAAGACGAGAGUCAGAGUAGAAGGCCUAGGAA [salish99-ss1-164]
[1]
  apparent KD of MS2 coat protein: 0.024 µM
[2]
  apparent KD of MS2 coat protein: 0.0646 µM

## UAUCAUUACACGAAGGAUAUCGAUAAUUGAACAUGAGGAUCACCCAUGUGCCAUCCCUUACAGUUCGAGAAGGUCGAGGGUGAAG [JR_SS002_Sub707]
[1]
  apparent KD of MS2 coat protein: 0.142 µM
[2]
  apparent KD of MS2 coat protein: 0.299 µM

## UUUAAUUAUACGAAGGAUAUCGAUAAUAAGACAUGAGGAUCACCCAUGUAAUAUUUUUCCAUAUUCGAGAAGGUCGCGGGUGAAC [JR_SS002_Sub601]
[1]
  apparent KD of MS2 coat protein: 0.025 µM
[2]
  apparent KD of MS2 coat protein: 0.0169 µM
